From patent publication US20250197476A1 come the findings set out here.

In assay [1] the target is Fc gamma receptors of NK cells. As to the kind of experiment: cytofluorometry, NK cells, 10 µg/ml, 30 min at 37 °C.
Assay [2] concerns the target Fc gamma receptors of human macrophages. The experiment in a line: cytofluorometry, human macrophages with 5 µg/ml hybrid for 2 h at 37 °C, anti-Fc-FITC.
Assay [3] shares this target. As to the kind of experiment: cytofluorometry, human macrophages with 5 µg/ml hybrid for 20 h at 37 °C, anti-Fc-FITC.
Assay [4] deals with Fc gamma receptors of NK cells. As to the kind of experiment: cytofluorometry, NK cells, 24 h at 37 °C.
In assay [5] the target is Fc gamma receptors of NK cells. The experiment in a line: cytofluorometry, NK cells, 48 h at 37 °C.
The target in assay [6] is Fc gamma receptors of NK cells. As to the kind of experiment: cytofluorometry, NK cells, 30 min at 37 °C.
Assay [7] concerns the target Fc gamma receptors of NK cells. As to the kind of experiment: cytofluorometry, NK cells, 10 µg/ml, no competing IgG (same values as Table 9).
Assay [8] concerns the target Fc gamma receptors of NK cells. The experiment in a line: competition, cytofluorometry on NK cells; human IgG at 1 µg/ml against FcSDHFSTIE-N3-DBCO-A647 at 10 µg/ml.
Assay [9] deals with Fc gamma receptors of NK cells. The experiment in a line: competition, cytofluorometry on NK cells; human IgG at 10 µg/ml against FcSDHFSTIE-N3-DBCO-A647 at 10 µg/ml.
Assay [10] concerns the target Fc gamma receptors of NK cells. As to the kind of experiment: competition, cytofluorometry on NK cells; human IgG at 100 µg/ml against FcSDHFSTIE-N3-DBCO-A647 at 10 µg/ml.
Assay [11] deals with Fc gamma receptors of NK cells. The experiment in a line: competition, cytofluorometry on NK cells; human IgG at 1000 µg/ml against FcSDHFSTIE-N3-DBCO-A647 at 10 µg/ml.
In assay [12] the target is Fc gamma receptors of NK cells. As to the kind of experiment: competition, cytofluorometry on NK cells; human IgG at 10000 µg/ml against FcSDHFSTIE-N3-DBCO-A647 at 10 µg/ml.

“FcLALAPG-N3-DBCO-A647 (from UniProt P01857 104-330)” registered an MFI in [1] of 450.
In the case of “FcLALAPG-N3-DBCO-β60-74Cit (from UniProt P01857 104-330)”, the fluorescence (Macrophages) in assay [2] stood at 502; in assay [3], 404.
For “FcSDHFSTIE-N3-DBCO-A488 (from UniProt P01857 104-330)”, the MFI in assay [4] was found to be 2350; in assay [5], 1710; in assay [6] it was 2970.
Regarding “FcSDHFSTIE-N3-DBCO-A647 (from UniProt P01857 104-330)”, the MFI in assay [1] and in assay [7] was 38500 throughout.
Regarding “FcSDHFSTIE-N3-DBCO-PEG3-β60-74cit-lysineA488 (from UniProt P01857 104-330)”, the MFI was determined as 4090 in assay [4], 4340 in assay [5] and 4590 in [6].
With “FcSDHFSTIE-N3-DBCO-β60-74Cit (from UniProt P01857 104-330)”, the fluorescence (Macrophages) in assay [2] was determined as 1330; in [3], 1460.
On the same counts, the results for “FcWT-N3-DBCO-β60-74Cit (from UniProt P01857 104-330)” are 808 and 1000.
Consider human IgG (antibody), for which the MFI of FcSDHFSTIE-N3-DBCO-A647 with competing IgG in [8] came out at 37900; in assay [9], 38800; in [10], 36300; in assay [11], 29500; in assay [12], 20500. In addition, the RATIO of FcSDHFSTIE-N3-DBCO-A647 with competing IgG was determined as 179 in assay [8]; 183 in [9]; 171 in assay [10]; 139 in assay [11]; 96.6 in assay [12].
